Data from a protein production outcome set (Wang et al. 2014).

Assay: label from the status in PepcDB records

Row | Sequence | protein production
1 | MPSFRRSVAAVVTALPLIAGGCAHRPAVETASPEAVQWNLSDGAETTFYYLMLDQAARSDNTRDAIEAIENLIRLSPTARVYNDSGSFLLSRKEPDLARDILTRGVAAHPDDLGLTLLLAESYLDLDRNDEAIALLRAYNAKHPKDDEARQELAQLLVKTRRYEEADKLILSIGETSRTSLLRYYHARALMGLNRLTEATAQLRKAVKASPDFLEAWAELAYVYELRKNYVEAEKIYEQILALDEGNQDVWLRLVAINIKLNNPVKAYELARQGPETFGFMLTAATLFLDDRFFEQAEGLLLAVKDSPGAPEEVYFFLAVLAYEGQRDTDATLSWLLEVRPTNKYYDRALRLRSQLLYEKGDLEAALRTAREGRETFPEQRDFREMEAQLLVNMGRSEEALRVIDKAADRWPDDSGLLFMRALILDDRGAKDAAFAAMEEVIKASPNHAQALNYVGYTLAEQERDLTRAVSLLERANTLSPDNPFILDSLAWAYFKAGRIPEAWKAISRAIELNAPDPIIWEHYGDIATAMGQKNTARRAYRKALSMNPQNPDAIKAKLDKK | failed
2 | MPSMSPIDKSWSTCPYGFLDGTHQELRRIFHLWRCKKYRSQFTEEKKATYEEKLAASELFKDKKALYPSSVSQPFKGDYVEITKNPKYQKLNSLVEDKVLLADVVSKINRANGKGTPRIFLLTKKCLVLADQKTGQVKASVPLPDLSSVFVSTQNDGFFALKLREGATSAAKGDYLLSSDRLIEIITKLYCTGAASAERNQIKIDISDEFLVQFKQDKVCVKFIQGTPKNSNSVSCKRKNNRLLEVSVPSP | failed
3 | MPSQDWERSVLGCSMQVGQGWCCVDLSDISCVQDVAKEVLDCYGCVDILINNASVKVKGPAHKISLELDKKIMDANYFGPITLTKVLLPNMISRRTGQIVLVNNIQAKFGIPFRTAYAASKHAVMGFFDCLRAEVEEYDVVVSTVSPTYIRSYRASPEQRNWETSICKFFCRKLAYGVHPVEVAEEVMRTVRRKKQEVFMANPVPKAAVFIRTFFPEFFFAVVACGVKEKLNVPEEG | failed
4 | MPSQLGITLKQVRLQQHLSQATVATGICAQSMLSAIENGKYTPNATLLMRLCQRLKISLDQLSLAENFTISDLEQINDRLAKLCNHHRYADLREFLLTDAVQARLTTDVQLAAYYYYLGITDFQLGHLTDAQQQFQLALASAPAQHRTTLSRLCWMSLALIHASRQQANASEEAMTQAVTQLKTAPYEANLNSLFYLAAVSHLKLNQLTIAAQWLERGIDFATDHDSHYMLANDYHLLAVIASRSEQIDQQRTAQATEHVLTTLFHESIYDRLD | failed
5 | MPSSDLRAFVVRVVIVLALVAYAWLLWALSGLLLMVFGAVVVAVLLRALASWVTRYTPLSDGMALGLVVVVVAVGFTALLWLFGSQLATELGALQRTLPQAWARFHDWVAAGPLGPALEELTRQAPARVSNLAPRAGAFALSITGGVANLFLVLAGAVYLAAQPQLYRRGVLLLFPVQVRATMDDAVRASGTALRLWLRGQLLAMVVVGALTGLGLWALGIPGALALGIIAGLLDFVPIVGPILAAIPAILLGFTVSPQMALATAALFVVVQQIEGNILLPLIQQRTVDLPPVLLLFSLFGIGTLLGPAGVLLAAPLTVVAFVLVKRLYVQEALHTPTSIPGQKHH | failed
6 | MPSSSASLIPSLRQASRQMVRELGFMQATLAATDYPPSAVHALLEIGQGNALTAGDLVTLLGLEKSSVSRLVRKLVDAGEISEQAHDQDARSKKLQLSARGRQTLAGIDRFAQAQVAAALAHLSPAQQRSACAGIADYARALRAVRLGDVPEPPERCSIARGYRPGVIGRIAEMHARYYADLAGFGQPFESLVARDMAELMGRLHNPRNEVWVALQGERIVGSIAIDGEGEGGEALLRCFILDEAARGQGLGRRLLAEALGFCDQWGFAATRLWTFKGLDAARALYEEQGFVLVQEQEGEQWGAPVTEQCFVRARVAQRDTIR | failed
7 | MPTATDARGHTVTLDHRPRRILSLVPSQTELLAHLDLADEVVGITRFCERPEHWRSEKAIVGGTKQVDFDTVRDLDPDLVLANHEENTAEDVETLDEIAPVFVTEVKTVEDALGMIRTVGTLTETSDQTSTLVGKIISRFESLPDFTSLRAAYLIWRDPYMTIGNDTFIHDVMHWGGLENAYGDQTRYPDVTIADLAEQDLDVVLCSSEPFPFHEKDAFTADLREALPDTSVEIVDGQPFSWYGPRLLDTPSYLKTLRERLPTPAPRR | failed
8 | MPTFDHGNLSLGELELTVLYDEERYDIVEQTETVQVDLEGPRGVLTVFRFARPSYEVFVDLTEAGEGSHTVDVEHRGFPGDLAVTVEPRMARVQLEERQTVSVPVTVEMINLEHHHHHH | not failed
9 | MPTLQLFIYIIGFLFLMYMAWSLWTEKPSNIEEIEPMSAKKQILFALSVSLLNPHAIMDTVGVIGTSASVYDGYDKVVFSLATISVSWIWFVFLAILGRITGKIDKSGKYIVILNKVSSVIVIIVGLIILKNIVGILS | failed
10 | MPTPTYPKASLIIRERGLPKREVLLSPDRQWTIGRQLDCSIRLTDAYVSRLHAVINAFLFRGQPLYFIRDAHSRNGTFLNGFPLQHSTLLHHEDVIGVGTTLLVFYYPDMFREISLDECPELTKGSTDSLPWRS | failed
11 | MPTTKQLKDTELPLNFFEHSSLETIELFIQHLTEAMILVNANGFIRSCNQRSAELLDCPQVSLKGQDWRNFLTEHHQARYDNLLSHDVQLGTNCGQPVQHPAQETTLICASGKAKDVELSISYIPGHEPMFVMVMHDLTHHKAELEHHHHHH | not failed
12 | MPTVFIFLTAVYAGLGAFAWHCQQQGRGRDYPWKTELPVLGAALTVHGAALLMPVIQDKIIIMGFGYSGSLIVWMMLFIYFAGSFFYPLRGVQLLLYPCAALMLLSGLVFPGKFSGYEITDFPFMLHIGTSLLAYGLFGIATLLSVLSLLLHRSLHRRNFSKLAGFLPSLLSLEKLMFQAMWAGFILLTYSVVSGTFFAEAVFGKPMTFTHKTVFGILSWLIYGGLLLKHSMTAWRGKKAAVWTIIGFVSLMIAYMGSKFVLEIILKR | failed
13 | MPTYLFLSSGNVLADRRYDFARELLARGEAEAAADLLAQAVELAPDFTSAWFALGEIRQDRLGNREGAVDAFRRARAADPRDRHGAGLRLMRLGAADLDAMSPAYIGALFDQYAPRFDKSLVEDLGYRGPALLFEAVREVCETTGRAMAFRRAIDLGCGTGLVGRAFAPIISEIIGFDLAPQMIERARATGVYGRLAVTDLVQGLANEPPASAELILAADVLIYIQDVAPLLHEAARVLPPGGLLAVTAETHAGDGVVLTAGLRFAQAESYLRAELERAGLVVALLQYASARNEKHTPLPGLVVVAFRPNG | failed
14 | MPTYSAMANTDGGIVILGVRERKGQFEVAGIENPDKLRTELFNHLNNRQKVSVNLLRDEDVRAWPVEGKTLLVVEIPRARRQQRPVYLRGNPLGGHTYRRLHEGDRPLEHHHHHH | failed
15 | MPVCWSHRSDSRPASNATPLSGPVGWAHQAAPLQRLLHGTAPVILSPALEPPQHKDPAMPKLASIHLYPIKSTAGMPLTRALVTEEGLQGDRRYMVVKPDGSFITARTHPQLQQVVATPIEGGLQLRYPGLDPLILQEREFSRTPRATGVWSDSFSALQTQPQADQWLSQVAGEPVQLLWLGEESARFREKTGTRVSFADGYPLLLISQASLEDLNLRSDALHQMSQFRTNLVASGTLPFEEDGWKRIRIGEVEFRVAKPCSRCIMTTVEPGTDRFNALKEPLATLTRYRRGEDGEVYFGQNLVALNEGWIEAGSEIEVLERARAPVYPNAAPKKRELVCVAREPLARDLETFWFEAADGEPLPDYLPGQHLPISLDIGLGLRRERLQRRYTLSSTPERPERYSISVKKVGGGRISHWLHQQLQPGDRLLAAAPAGEFHLGTGRSLLLLSAGSGVTPMLSIARTLALRGELGDVHFMHLCRSEADIPAAGELHALAQQGMTLTLILSQPDTHWQGLKGRLGDDHLKQVKQLAEREVFICGPHGFMADAAARLVALGVPAERIRQESFGGAILSVARPHQAVQLRIGKQSFAGNNQGTVLDQAHKQGVDLPWSCRAGICGSCKQTLLEGEVDHPDAPAITAAERAEGKILTCCAVPLTDLVIK | failed
16 | MPVDAKTKYKAKKIKIVFFDIDDTLRVKKTGYIPESIKAVFKGLKEKGILTGIATGRGYYGVVEEILDLEPDYFVTINGTYVINRKGEEIYNQPLAREVTEAFVAWCKEIGIAWGFAGKDKPVVSERSELIDDAIVPIYGICDVEPDFHLTNDVYQMWTFAENNGDLKLPEELAAHVRLVPWHEHSSDVVATGISKASGVGHVLEHENLTPVNAMMFGDGPNDKEIFDYVGLKIAMGNATPELKAKADYVTGTVEEDGIFNALEELGLVEKELHFPQLDLDTVEGPVATIKTNHGDLVIKLFPDHAPLAVTNFVNLAKSGYYDGVIFHRIIKDFMIQGGDPTGTGMGGESSFGGSFQDEFSEELYNLRGALSMANAGPDTNGSQFFIVQAPEIPYAKKELERGGWPAPIAEAYAENGGTPHLDRRHTVFGHLVDEASYKVLDEIANVEVGTQDKPLEEVVIETIEVTDLEHHHHHH | not failed
17 | MPVDKNLRDLEPGIHTDLEGRLTYGGYLRLDQLLSAQQPLSEPAHHDEMLFIIQHQTSELWLKLLAHELRAAIVHLQRDEVWQCRKVLARSKQVLRQLTEQWSVLETLTPSEYMGFRDVLGPSSGFQSLQYRYIEFLLGNKNPQMLQVFAYDPAGQARLREVLEAPSLYEEFLRYLARFGHAIPQQYQARDWTAAHVADDTLRPVFERIYENTDRYWREYSLCEDLVDVETQFQLWRFRHMRTVMRVIGFKRGTGGSSGVGFLQQALALTFFPELFDVRTSVGVDNRPPQGSADAGKRLEHHHHHH | not failed
18 | MPVNSILGVFAKSPIKPLQEHMDKVYDCASLLVPFFEATITGNWDDAVQIRKQISLAEKQGDSLKREIRLTLPSGLFMPVERTDLLELLTQQDKIANKAKDISGRVIGRQLLIPQALQVPFIAYLQRCIDAVGLAQQVINELDDLLEAGFRGREVDFVAKMINELDIIEEDTDDLQIQLRRQLFALESELNPVDVMFLYKTIEWVGGLADLAERVGSRLELMLARV | not failed
19 | MPVQENSFKSYSEVITGSIIYGTIGVFLDRVQDMSVGSVLFCRLLFGVFMIFFYLLLSGSLEQLRLRRNRKYLLLLGFLNAVTGICYLSAIRHSGISTAVLLLYTAPVYVNLLAPAILGEKGSSKSFLPLILSVLGVLLITRPGEILFNINAGSEFIKGLLYGILSGISFGTTIILIRYLRHDYTGISQTFWLTGVSLLFMLPSALLTPASVFLKNFDTLFLFGITITFAAILYLRGISGIKAQTGSILALLEPVSGIFFDTVVLRSPFYISTLLGCVLILTAAYLVSRNGTGDQSLKTDNQPVL | failed
20 | MPVRVSLELLRVGHCRHCERMVRADGHWHAVEFPALSVLIRHPQRGALLYDTGYAAHFFRATDAWPERLYRLTTPVRLPAHETLGAQLSKRGVALDDIAWCLISHFHADHVGGLRDLPNARFMCSRADHQQLRSCSRVGGLRRALLPQLLPDDFDQRLQFADQAPQRALTGAWQGLGPAYDLFEDGSVLAVSLPGHVPGQMGLRVRDQHDREVLLCADAVWSSATWATLQWPAWPTRLLMHDWHAFQRTVHRLHALSHAHPELAILPSHCQPSLDRYQPEWR | failed
